B1: Phospholipase D alpha 1 (Arabidopsis thaliana (Mouse-ear cress)), Q38882 (parent)
chain: MAQHLLHGTLHATIYEVDALHGGGVRQGFLGKILANVEETIGVGKGETQLYATIDLQKARVGRTRKIKNEPKNPKWYESFHIYCAHLASDIIFTVKDDNPIGATLIGRAYIPVDQVINGEEVDQWVEILDNDRNPIQGGSKIHVKLQYFHVEEDRNWNMGIKSAKFPGVPYTFFSQRQGCKVSLYQDAHIPDNFVPRIPLAGGKNYEPQRCWEDIFDAISNAKHLIYITGWSVYAEIALVRDSRRPKPGGDVTIGELLKKKASEGVRVLLLVWDDRTSVDVLKKDGLMATHDEETENFFRGSDVHCILCPRNPDDGGSIVQSLQISTMFTHHQKIVVVDSEMPSRGGSEMRRIVSFVGGIDLCDGRYDTPFHSLFRTLDTVHHDDFHQPNFTGAAITKGGPREPWHDIHSRLEGPIAWDVMYNFEQRWSKQGGKDILVKLRDLSDIIITPSPVMFQEDHDVWNVQLFRSIDGGAAAGFPESPEAAAEAGLVSGKDNIIDRSIQDAYIHAIRRAKDFIYVENQYFLGSSFAWAADGITPEDINALHLIPKELSLKIVSKIEKGEKFRVYVVVPMWPEGLPESGSVQAILDWQRRTMEMMYKDVIQALRAQGLEEDPRNYLTFFCLGNREVKKDGEYEPAEKPDPDTDYMRAQEARRFMIYVHTKMMIVDDEYIIIGSANINQRSMDGARDSEIAMGGYQPHHLSHRQPARGQIHGFRMSLWYEHLGMLDETFLDPSSLECIEKVNRISDKYWDFYSSESLEHDLPGHLLRYPIGVASEGDITELPGFEFFPDTKARILGTKSDYLPPILTT
partner: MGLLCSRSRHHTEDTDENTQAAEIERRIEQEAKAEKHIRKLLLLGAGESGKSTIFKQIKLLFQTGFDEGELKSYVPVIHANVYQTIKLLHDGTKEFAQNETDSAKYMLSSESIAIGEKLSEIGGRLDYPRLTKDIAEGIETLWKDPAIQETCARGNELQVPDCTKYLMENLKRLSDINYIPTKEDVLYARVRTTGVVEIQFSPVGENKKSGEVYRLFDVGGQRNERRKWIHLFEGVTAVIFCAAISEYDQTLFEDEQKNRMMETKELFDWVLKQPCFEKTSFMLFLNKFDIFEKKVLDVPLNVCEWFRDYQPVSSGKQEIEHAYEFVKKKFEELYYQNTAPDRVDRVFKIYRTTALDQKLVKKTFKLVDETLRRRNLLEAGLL

Variants of: B1
Settings: with gpa1_arath GPA1, P18064

effect of a mutation on the interaction | Variant
decreasing interaction | F565A
disrupting interaction | K564A
decreasing interaction | E563A

Variants of: B1
Settings: with gpa1_arath GPA1, P18064
Remark: another data set of the same source

effect of a mutation on the interaction | Variant
decreasing interaction | K564A

Source: IntAct's records for PubMed 14594812
